Experimental data taken from publication PMC10313165.

Experiments:
[1] = molecular target: rat CaMKIIα holoenzyme with pT286 (rat (Rattus norvegicus)) (UniProt P11275); experiment: high-speed atomic force microscopy; 50 nM CaMKII and 800 nM CaM premixed in buffer B with 1 mM CaCl2 and 1 mM ATP, 30 °C, 5 min; imaged in buffer A with 1 mM CaCl2 and 1 mM ATP on pillar[5]arene-modified mica, 24-26 °C
[2] = molecular target: rat CaMKIIα holoenzyme (wild type, not phosphorylated) (rat (Rattus norvegicus)) (UniProt P11275); experiment: high-speed atomic force microscopy; 50 nM CaMKII and 800 nM CaM premixed in buffer B (50 mM tris-HCl pH 7.4, 150 mM KCl, 10 mM MgCl2) with 1 mM CaCl2, 30 °C, 5 min, no ATP; imaged in buffer A with 1 mM CaCl2 on pillar[5]arene-modified mica, 24-26 °C

In the case of “rat calmodulin, 6xHis-tagged (Ca^2+-bound in the assays) (from UniProt P0DP29 1-149) (natural protein; other documents disagree on this pair)”, the fraction of Ca^2+/CaM bound longer than 60 s [1] is reported as 77.3% and the fraction of Ca^2+/CaM bound longer than 60 s [2] is reported as 41.1%.
